Reference: publication PMC11127164, “Brefeldin A and M-COPA block the export of RTKs from the endoplasmic reticulum via simultaneous inactivation of ARF1, ARF4, and ARF5” (The Journal of Biological Chemistry, 2024)

T1: glutathione S-transferase-fused Golgi-localized γ-adaptin ear-containing, ARF-binding protein 3 (1–316) (UniProt Q9NZ52 1-316)
T1 construct: also called GST-GGA3; GST-GGA3(1–316); source: bought: Cytoskeleton, coated on Sepharose beads
T1 sequence (looked up): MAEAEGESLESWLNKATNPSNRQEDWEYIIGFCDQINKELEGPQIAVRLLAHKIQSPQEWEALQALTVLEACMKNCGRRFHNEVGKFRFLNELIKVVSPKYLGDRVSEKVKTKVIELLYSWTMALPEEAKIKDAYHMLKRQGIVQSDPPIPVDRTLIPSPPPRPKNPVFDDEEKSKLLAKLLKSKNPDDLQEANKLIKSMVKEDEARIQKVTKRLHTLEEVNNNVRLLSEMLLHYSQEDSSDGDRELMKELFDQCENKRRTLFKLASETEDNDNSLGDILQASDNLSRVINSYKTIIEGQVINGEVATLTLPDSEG


What was measured:
[1] = target: T1, glutathione S-transferase-fused …; assay: pull-down; GST-GGA3(1–316)-coated Sepharose beads incubated with lysates of GIST-T1 or PC-9 cells at 4 °C for 1 h, washed once, immunoblot for ARFs; cells untreated or treated with 1 μM M-COPA or 1 μM BFA for 4 h (GIST-T1) or 200 nM M-COPA for 8 h (PC-9); conditions: one partner purified
[2] = target: T2, Golgi-specific BFA-resistance guanine nucleotide exchange factor 1 (human (endogenous in GIST-T1), UniProt Q92538 1-1860); assay: co-IP; endogenous GBF1 immunoprecipitated from GIST-T1 lysate (NP-40 lysis buffer, 50 mM HEPES pH 7.4) with anti-GBF1 on Dynabeads Protein G, 4 °C, 5 h, immunoblot for ARFs; cells untreated or treated with 1 μM M-COPA for 4 h; co-precipitated ARF normalised to GBF1; conditions: partners not purified
T2 construct: Golgi-specific BFA-resistance guanine nucleotide exchange factor 1 (GBF1), human, endogenous in GIST-T1 cells; Immunoprecipitated with an anti-GBF1 antibody on Dynabeads Protein G; also called GBF1; source: endogenous, GIST-T1 lysate
T2 sequence (Q92538 whole entry): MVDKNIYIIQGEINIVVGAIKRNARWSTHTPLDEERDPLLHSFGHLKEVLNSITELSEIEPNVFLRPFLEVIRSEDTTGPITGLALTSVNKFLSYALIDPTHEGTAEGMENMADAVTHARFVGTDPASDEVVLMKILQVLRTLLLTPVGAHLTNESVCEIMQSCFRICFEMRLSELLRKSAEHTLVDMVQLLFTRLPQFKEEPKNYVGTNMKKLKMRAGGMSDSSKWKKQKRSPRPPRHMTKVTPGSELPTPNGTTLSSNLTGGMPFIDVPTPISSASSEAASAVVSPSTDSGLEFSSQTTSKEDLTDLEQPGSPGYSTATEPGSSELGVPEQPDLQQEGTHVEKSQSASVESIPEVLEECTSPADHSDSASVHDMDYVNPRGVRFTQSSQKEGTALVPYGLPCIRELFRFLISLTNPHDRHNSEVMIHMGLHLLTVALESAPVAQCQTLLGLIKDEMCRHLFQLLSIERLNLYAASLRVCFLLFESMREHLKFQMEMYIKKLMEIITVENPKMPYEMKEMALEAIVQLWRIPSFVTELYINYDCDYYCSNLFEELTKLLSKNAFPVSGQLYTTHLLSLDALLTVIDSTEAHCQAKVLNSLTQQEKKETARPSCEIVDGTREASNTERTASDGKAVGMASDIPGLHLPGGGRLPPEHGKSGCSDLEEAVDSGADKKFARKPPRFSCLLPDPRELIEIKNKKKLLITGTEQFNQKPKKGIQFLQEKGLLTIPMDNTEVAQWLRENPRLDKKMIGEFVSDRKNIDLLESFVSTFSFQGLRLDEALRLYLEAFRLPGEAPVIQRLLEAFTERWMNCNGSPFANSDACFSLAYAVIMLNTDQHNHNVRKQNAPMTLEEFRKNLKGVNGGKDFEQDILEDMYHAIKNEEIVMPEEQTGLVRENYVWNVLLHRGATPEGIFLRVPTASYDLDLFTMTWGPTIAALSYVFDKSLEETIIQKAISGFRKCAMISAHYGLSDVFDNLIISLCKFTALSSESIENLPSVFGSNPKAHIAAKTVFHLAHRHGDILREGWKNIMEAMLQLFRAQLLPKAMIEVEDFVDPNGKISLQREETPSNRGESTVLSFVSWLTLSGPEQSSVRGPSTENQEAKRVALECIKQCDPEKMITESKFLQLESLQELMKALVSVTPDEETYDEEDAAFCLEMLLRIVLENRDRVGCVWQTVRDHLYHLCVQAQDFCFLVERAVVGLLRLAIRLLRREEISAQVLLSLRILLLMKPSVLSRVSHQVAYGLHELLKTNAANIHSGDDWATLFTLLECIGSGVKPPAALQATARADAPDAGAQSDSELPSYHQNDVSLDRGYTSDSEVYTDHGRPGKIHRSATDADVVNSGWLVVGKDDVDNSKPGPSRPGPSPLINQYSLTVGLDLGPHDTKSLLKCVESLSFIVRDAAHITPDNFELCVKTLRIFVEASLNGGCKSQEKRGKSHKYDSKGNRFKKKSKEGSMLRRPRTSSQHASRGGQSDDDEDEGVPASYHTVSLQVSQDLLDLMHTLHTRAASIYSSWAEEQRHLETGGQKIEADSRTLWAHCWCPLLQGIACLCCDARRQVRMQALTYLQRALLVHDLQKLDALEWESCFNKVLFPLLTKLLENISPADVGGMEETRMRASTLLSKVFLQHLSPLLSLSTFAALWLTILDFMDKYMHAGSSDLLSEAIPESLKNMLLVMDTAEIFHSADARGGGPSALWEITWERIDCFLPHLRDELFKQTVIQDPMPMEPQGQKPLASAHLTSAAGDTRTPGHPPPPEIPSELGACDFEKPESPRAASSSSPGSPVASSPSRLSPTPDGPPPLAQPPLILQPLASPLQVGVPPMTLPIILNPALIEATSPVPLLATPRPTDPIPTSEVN

Row | Binder | level of GGA3-bound ARF after M-COPA treatment of the cells, relative to the untreated control [1] [%] | fold increase of ARF co-immunoprecipitated with GBF1 after M-COPA treatment, relative to the untreated control [2] [fold]
1 | ADP-ribosylation factor 5 (natural protein, human (endogenous in GIST-T1 and PC-9), UniProt P84085 1-180, looked up, ADP-ribosylation factor 5 (ARF5), human, endogenous in GIST-T1 and PC-9 cells; also called ARF5; source: endogenous, GIST-T1 and PC-9 lysate) MGLTVSALFSRIFGKKQMRILMVGLDAAGKTTILYKLKLGEIVTTIPTIGFNVETVEYKNICFTVWDVGGQDKIRPLWRHYFQNTQGLIFVVDSNDRERVQESADELQKMLQEDELRDAVLLVFANKQDMPNAMPVSELTDKLGLQHLRSRTWYVQATCATQGTGLYDGLDWLSHELSKR | < 18 | 8.66
2 | ADP-ribosylation factor 1 (natural protein, ADP-ribosylation factor 1 (ARF1), human, endogenous in GIST-T1 and PC-9 cells; also called ARF1; source: endogenous, GIST-T1 and PC-9 lysate) not shown | < 18 | 6.89
3 | ADP-ribosylation factor 4 (natural protein, human (endogenous in GIST-T1 and PC-9), UniProt P18085 1-180, looked up, ADP-ribosylation factor 4 (ARF4), human, endogenous in GIST-T1 and PC-9 cells; also called ARF4; source: endogenous, GIST-T1 and PC-9 lysate) MGLTISSLFSRLFGKKQMRILMVGLDAAGKTTILYKLKLGEIVTTIPTIGFNVETVEYKNICFTVWDVGGQDRIRPLWKHYFQNTQGLIFVVDSNDRERIQEVADELQKMLLVDELRDAVLLLFANKQDLPNAMAISEMTDKLGLQSLRNRTWYVQATCATQGTGLYEGLDWLSNELSKR | < 18 | 14.1
